Paper PMC5907831 (Journal of Molecular Cell Biology, 2017)
Read-outs that look alike come from different tables or passages of the source.

B6: SRP72^1–163 (human SRP72 N-terminal TPR domain, SRP68-binding domain) (domain or fragment, UniProt O76094 1-163, looked up)
chain: MASGGSGGVSVPALWSEVNRYGQNGDFTRALKTVNKILQINKDDVTALHCKVVCLIQNGSFKEALNVINTHTKVLANNSLSFEKAYCEYRLNRIENALKTIESANQQTDKLKELYGQVLYRLERYDECLAVYRDLVRNSQDDYDEERKTNLSAVVAAQSNWEK

Key:
[1] = Stability/solubility of SRP68 fragments and of SRP72 without cap; type: physicochemical; conditions: preliminary experiments
[2] = ref Iakhiaeva et al., 2009, cited from earlier work
[3] = test system: SRP68; assay: Binding ability of SRP72 mutants with Flag-tagged SRP68 from HCT116 cell lysate; type: cell-based, human; conditions: HCT116 cells
[4] = test system: SRP72; assay: Binding ability of Flag-tagged SRP68 mutants from HCT116 cell lysate; type: cell-based, human; conditions: HCT116 cells; Flag-tagged SRP68 mutant from cell lysate
[5] = target: the molecule itself; assay: AUC
[6] = target: the molecule itself; assay: SEC
[7] = Size-exclusion chromatography; type: physicochemical; conditions: Superdex 75 10/300 GL; 20 mM Tris-HCl pH 8.0, 500 mM NaCl
[8] = target: T1, SRP72 V136A/R137A double mutant (human, UniProt O76094 1-163, V136A | R137A); assay: pull-down
T1 sequence (looked up): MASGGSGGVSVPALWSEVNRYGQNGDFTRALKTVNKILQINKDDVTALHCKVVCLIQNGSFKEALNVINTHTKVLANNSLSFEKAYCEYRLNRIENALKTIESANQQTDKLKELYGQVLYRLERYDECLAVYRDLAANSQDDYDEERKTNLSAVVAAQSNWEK

[9] = target: B6; assay: MST

Molecule: 570–605: C-terminal SRP68 fragment from previous study (KQANLVHFPPGFQPIPCKPLFFDLALNHVAFPPLED; UniProt Q9UHB9 570-605, looked up, fragment) [reference compound]
- degradation / solubility of fragment [1]: either prone to degradation or not soluble

B1: SRP68/72 complex: heterodimer of SRP68 and SRP72 (protein, UniProt Q9UHB9 1-627; O76094 2-671, looked up)
Signal recognition particle … 1: MAAEKQVPGGGGGGGSGGGGGSGGGGSGGGRGAGGEENKENERPSAGSKANKEFGDSLSLEILQIIKESQQQHGLRHGDFQRYRGYCSRRQRRLRKTLNFKMGNRHKFTGKKVTEELLTDNRYLLLVLMDAERAWSYAMQLKQEANTEPRKRFHLLSRLRKAVKHAEELERLCESNRVDAKTKLEAQAYTAYLSGMLRFEHQEWKAAIEAFNKCKTIYEKLASAFTEEQAVLYNQRVEEISPNIRYCAYNIGDQSAINELMQMRLRSGGTEGLLAEKLEALITQTRAKQAATMSEVEWRGRTVPVKIDKVRIFLLGLADNEAAIVQAESEETKERLFESMLSECRDAIQVVREELKPDQKQRDYILEGEPGKVSNLQYLHSYLTYIKLSTAIKRNENMAKGLQRALLQQQPEDDSKRSPRPQDLIRLYDIILQNLVELLQLPGLEEDKAFQKEIGLKTLVFKAYRCFFIAQSYVLVKKWSEALVLYDRVLKYANEVNSDAGAFKNSLKDLPDVQELITQVRSEKCSLQAAAILDANDAHQTETSSSQVKDNKPLVERFETFCLDPSLVTKQANLVHFPPGFQPIPCKPLFFDLALNHVAFPPLEDKLEQKTKSGLTGYIKGIFGFRS
Signal recognition particle … 2: ASGGSGGVSVPALWSEVNRYGQNGDFTRALKTVNKILQINKDDVTALHCKVVCLIQNGSFKEALNVINTHTKVLANNSLSFEKAYCEYRLNRIENALKTIESANQQTDKLKELYGQVLYRLERYDECLAVYRDLVRNSQDDYDEERKTNLSAVVAAQSNWEKVVPENLGLQEGTHELCYNTACALIGQGQLNQAMKILQKAEDLCRRSLSEDTDGTEEDPQAELAIIHGQMAYILQLQGRTEEALQLYNQIIKLKPTDVGLLAVIANNIITINKDQNVFDSKKKVKLTNAEGVEFKLSKKQLQAIEFNKALLAMYTNQAEQCRKISASLQSQSPEHLLPVLIQAAQLCREKQHTKAIELLQEFSDQHPENAAEIKLTMAQLKISQGNISKACLILRSIEELKHKPGMVSALVTMYSHEEDIDSAIEVFTQAIQWYQNHQPKSPAHLSLIREAANFKLKYGRKKEAISDLQQLWKQNPKDIHTLAQLISAYSLVDPEKAKALSKHLPSSDSMSLKVDVEALENSAGATYIRKKGGKVTGDSQPKEQGQGDLKKKKKKKKGKLPKNYDPKVTPDPERWLPMRERSYYRGRKKGKKKDQIGKGTQGATAGASSELDASKTVSSPPTSPRPGSAATVSASTSNIIPPRHQKPAGAPATKKKQQQKKKKGGKGGW
- complex stability ([2]; 1 M NaCl): remains stable
- complex stability ([2]; 2 M urea): stability in 2 M urea

B2: SRP72 Y86C: cancer-associated SRP72 mutant (protein, UniProt O76094 2-671, looked up, variant Y86C)
Signal recognition particle …: ASGGSGGVSVPALWSEVNRYGQNGDFTRALKTVNKILQINKDDVTALHCKVVCLIQNGSFKEALNVINTHTKVLANNSLSFEKACCEYRLNRIENALKTIESANQQTDKLKELYGQVLYRLERYDECLAVYRDLVRNSQDDYDEERKTNLSAVVAAQSNWEKVVPENLGLQEGTHELCYNTACALIGQGQLNQAMKILQKAEDLCRRSLSEDTDGTEEDPQAELAIIHGQMAYILQLQGRTEEALQLYNQIIKLKPTDVGLLAVIANNIITINKDQNVFDSKKKVKLTNAEGVEFKLSKKQLQAIEFNKALLAMYTNQAEQCRKISASLQSQSPEHLLPVLIQAAQLCREKQHTKAIELLQEFSDQHPENAAEIKLTMAQLKISQGNISKACLILRSIEELKHKPGMVSALVTMYSHEEDIDSAIEVFTQAIQWYQNHQPKSPAHLSLIREAANFKLKYGRKKEAISDLQQLWKQNPKDIHTLAQLISAYSLVDPEKAKALSKHLPSSDSMSLKVDVEALENSAGATYIRKKGGKVTGDSQPKEQGQGDLKKKKKKKKGKLPKNYDPKVTPDPERWLPMRERSYYRGRKKGKKKDQIGKGTQGATAGASSELDASKTVSSPPTSPRPGSAATVSASTSNIIPPRHQKPAGAPATKKKQQQKKKKGGKGGW
- binding ability compared with wild-type (HCT116) [3]: severely compromised or abolished the binding ability

B3: SRP68 F590L: cancer-associated SRP68 mutant (protein, UniProt Q9UHB9 1-627, looked up, variant F590L)
Signal recognition particle …: MAAEKQVPGGGGGGGSGGGGGSGGGGSGGGRGAGGEENKENERPSAGSKANKEFGDSLSLEILQIIKESQQQHGLRHGDFQRYRGYCSRRQRRLRKTLNFKMGNRHKFTGKKVTEELLTDNRYLLLVLMDAERAWSYAMQLKQEANTEPRKRFHLLSRLRKAVKHAEELERLCESNRVDAKTKLEAQAYTAYLSGMLRFEHQEWKAAIEAFNKCKTIYEKLASAFTEEQAVLYNQRVEEISPNIRYCAYNIGDQSAINELMQMRLRSGGTEGLLAEKLEALITQTRAKQAATMSEVEWRGRTVPVKIDKVRIFLLGLADNEAAIVQAESEETKERLFESMLSECRDAIQVVREELKPDQKQRDYILEGEPGKVSNLQYLHSYLTYIKLSTAIKRNENMAKGLQRALLQQQPEDDSKRSPRPQDLIRLYDIILQNLVELLQLPGLEEDKAFQKEIGLKTLVFKAYRCFFIAQSYVLVKKWSEALVLYDRVLKYANEVNSDAGAFKNSLKDLPDVQELITQVRSEKCSLQAAAILDANDAHQTETSSSQVKDNKPLVERFETFCLDPSLVTKQANLVHFPPGFQPIPCKPLLFDLALNHVAFPPLEDKLEQKTKSGLTGYIKGIFGFRS
- binding ability compared with wild-type (HCT116) [4]: severely compromised or abolished the binding ability

B4: SRP72 V53I: cancer-associated SRP72 mutant (protein, UniProt O76094 2-671, looked up, variant V53I)
Signal recognition particle …: ASGGSGGVSVPALWSEVNRYGQNGDFTRALKTVNKILQINKDDVTALHCKVICLIQNGSFKEALNVINTHTKVLANNSLSFEKAYCEYRLNRIENALKTIESANQQTDKLKELYGQVLYRLERYDECLAVYRDLVRNSQDDYDEERKTNLSAVVAAQSNWEKVVPENLGLQEGTHELCYNTACALIGQGQLNQAMKILQKAEDLCRRSLSEDTDGTEEDPQAELAIIHGQMAYILQLQGRTEEALQLYNQIIKLKPTDVGLLAVIANNIITINKDQNVFDSKKKVKLTNAEGVEFKLSKKQLQAIEFNKALLAMYTNQAEQCRKISASLQSQSPEHLLPVLIQAAQLCREKQHTKAIELLQEFSDQHPENAAEIKLTMAQLKISQGNISKACLILRSIEELKHKPGMVSALVTMYSHEEDIDSAIEVFTQAIQWYQNHQPKSPAHLSLIREAANFKLKYGRKKEAISDLQQLWKQNPKDIHTLAQLISAYSLVDPEKAKALSKHLPSSDSMSLKVDVEALENSAGATYIRKKGGKVTGDSQPKEQGQGDLKKKKKKKKGKLPKNYDPKVTPDPERWLPMRERSYYRGRKKGKKKDQIGKGTQGATAGASSELDASKTVSSPPTSPRPGSAATVSASTSNIIPPRHQKPAGAPATKKKQQQKKKKGGKGGW
- binding ability compared with wild-type (HCT116) [3]: severely compromised or abolished the binding ability

B5: residues 530–620: C-terminal SRP68 fragment from previous study (protein, UniProt Q9UHB9 530-620, looked up, fragment)
chain: AAILDANDAHQTETSSSQVKDNKPLVERFETFCLDPSLVTKQANLVHFPPGFQPIPCKPLFFDLALNHVAFPPLEDKLEQKTKSGLTGYIK
- degradation / solubility of fragment [1]: either prone to degradation or not soluble

Molecule: B6
- stoichiometry N [5]: 4
- stoichiometry N [6]: 2

B7: Y132A/R133A: double mutant of SRP72 in helix α8 (protein)
chain: MASGGSGGVSVPALWSEVNRYGQNGDFTRALKTVNKILQINKDDVTALHCKVVCLIQNGSFKEALNVINTHTKVLANNSLSFEKAYCEYRLNRIENALKTIESANQQTDKLKELYGQVLYRLERYDECLAVAADLVRNSQDDYDEERKTNLSAVVAAQSNWEK
modifications: left off: His6, N-terminal, state not stated
- oligomeric state in solution (SEC) [7]: eluted as monomers

B8: V136A/R137A: monomeric double mutant of SRP72 in helix α8 (protein)
chain: MASGGSGGVSVPALWSEVNRYGQNGDFTRALKTVNKILQINKDDVTALHCKVVCLIQNGSFKEALNVINTHTKVLANNSLSFEKAYCEYRLNRIENALKTIESANQQTDKLKELYGQVLYRLERYDECLAVYRDLAANSQDDYDEERKTNLSAVVAAQSNWEK
modifications: left off: His6, N-terminal, state not stated
- oligomeric state in solution (SEC) [7]: eluted as monomers

B9: apo-SRP72: human SRP72 N-terminal TPR domain, residues 1–163, apo form (protein)
chain: MASGGSGGVSVPALWSEVNRYGQNGDFTRALKTVNKILQINKDDVTALHCKVVCLIQNGSFKEALNVINTHTKVLANNSLSFEKAYCEYRLNRIENALKTIESANQQTDKLKELYGQVLYRLERYDECLAVYRDLVRNSQDDYDEERKTNLSAVVAAQSNWEK
modifications: left off: His6, N-terminal, cleaved
- oligomeric state in solution (SEC) [7]: mainly as a dimer in solution

B10: GST-tagged SRP68 residues 588−610 (23-residue peptide of SRP68) (peptide, UniProt Q9UHB9 588-610, looked up)
chain: PLFFDLALNHVAFPPLEDKLEQK
- binding result [8]: binds
- Kd [9]: 730 ± 200 nM
